# Read-outs that look alike come from different tables or passages of the source.
# Legend:
# [1] = molecular target: T1, chymotrypsin (Bos taurus, UniProt P00766); assay: Protease stability, incubation with chymotrypsin; format: in vitro ADME; settings: incubation for 4 hours with chymotrypsin
# T1 construct: purchased Roche
# Excerpt: (§1) The compound of interest is digested by a relevant protease (Trypsin, Chymotrypsin, Pepsin, Elastase, Factor VIIa, Factor Xa, Proteinase K, Carboxy peptidase, DPPIV, Neutral Endopeptidase, Granzyme B, Proline-endopeptidase, Staphylococcal peptidase I, Thermolysin, Thrombin, Arg-C proteinase, Asp-N endopeptidase, Caspase 1-10, Clostripain, Enterokinase, Glutamyl endopeptidase, Granzyme B, LysC, LysN, Proline-endopeptidase and Staphylococcal peptidase I or tissue extracts.) in an appropriate buffer (e.g. PBS or ammonium bicarbonate) at 37° C. for up till 24 hrs. Proteolytic degradation is assessed by a HPLC assay.
# (§2) 100 μL of test compound solution at 1 mg/mL in ammonium bicarbonate buffer is degraded by enzyme for up till 24 hrs at 37° C. […] These diluted samples are analysed by reversed phase HPLC to estimate the degree of proteolytic digestion.
# (§3) 10 μL of the above solution is injected on a reversed phase Vydac C4 2×150 mm column eluted with a linear gradient from 0.1% TFA in water to 100% acetonitrile containing 0.1% TFA over a period of 30 min at a flow rate of 0.2 ml/min. […] Percentage (%) intact compound at time point t=T is calculated from the peak area at time point t=T (AT) and the peak area at t=0 (A0) as (AT/A0)×100%. […] Half life (T1/2) is calculated as one phase decay also by GraphPad Prism software. […]
# [2] = molecular target: T2, elastase (Sus scrofa, UniProt P00772); assay: Protease stability, incubation with elastase; format: in vitro ADME, porcine; settings: incubation for 4 hours with elastase
# T2 construct: purchased Sigma; host or cells: porcine pancreas
# T2 sequence (P00772 27-266): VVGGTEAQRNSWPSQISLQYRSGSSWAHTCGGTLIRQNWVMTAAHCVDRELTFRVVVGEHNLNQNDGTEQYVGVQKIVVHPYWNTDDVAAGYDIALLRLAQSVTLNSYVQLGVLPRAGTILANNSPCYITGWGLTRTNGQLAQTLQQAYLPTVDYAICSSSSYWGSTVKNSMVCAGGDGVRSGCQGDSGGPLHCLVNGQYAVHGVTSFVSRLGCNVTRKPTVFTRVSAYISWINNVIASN
# Excerpt: as §1, §2, §3
# [3] = Pharmacokinetics in Sprague Dawley rats after i.v. and s.c. single dose
# Method: (§4) The pharmacokinetic of the compounds of the examples is investigated in male Sprague Dawley rats after intravenous (i.v.) and subcutaneous (s.c.) single dose administration.
# (§5) Test compounds are diluted to a final concentration of 1 mg/mL in a dilution buffer consisting of: Glycine 20 mg/mL, mannitol 2 mg/mL, NaHCO3 2.5 mg/mL, pH adjusted to 8.2.
# (§6) The test compounds are studied in male Sprague Dawley rats weighing 250 g. The test compounds are administered as a single injection either i.v. in the tail vein or s.c. in the neck with a 25 G needle at a dose of 60 nmol/kg body weight.
# (§7) At each sampling time 0.25 ml blood is drawn from the tail vein using a 25 G needle. The blood is sampled into a EDTA coated test tube and stored on ice until centrifugation at 1200×G for 10 min at 4° C. Plasma is transferred to a Micronic tube and stored at −20° C. until analysis.
# (§8) A non-compartmental pharmacokinetic analysis is performed on mean concentration-time profiles of each test compound using WinNonlin Professional (Pharsight Inc., Mountain View, Calif., USA). The pharmacokinetic parameter estimates of terminal half-life (t1/2) and mean residence time (MRT) are calculated.
# [4] = molecular target: T3, human growth hormone receptor (BAF-3 GHR cells) (Homo sapiens, UniProt P10912); assay: BAF-3 GHR assay to determine growth hormone activity; format: cell-based, mouse; settings: Table 5; relative to hGH = 1.0 (def)
# T3 construct: expressed in transfected cells; host or cells: BAF-3 (murine pro-B lymphoid cell line)
# T3 sequence (P10912 19-638): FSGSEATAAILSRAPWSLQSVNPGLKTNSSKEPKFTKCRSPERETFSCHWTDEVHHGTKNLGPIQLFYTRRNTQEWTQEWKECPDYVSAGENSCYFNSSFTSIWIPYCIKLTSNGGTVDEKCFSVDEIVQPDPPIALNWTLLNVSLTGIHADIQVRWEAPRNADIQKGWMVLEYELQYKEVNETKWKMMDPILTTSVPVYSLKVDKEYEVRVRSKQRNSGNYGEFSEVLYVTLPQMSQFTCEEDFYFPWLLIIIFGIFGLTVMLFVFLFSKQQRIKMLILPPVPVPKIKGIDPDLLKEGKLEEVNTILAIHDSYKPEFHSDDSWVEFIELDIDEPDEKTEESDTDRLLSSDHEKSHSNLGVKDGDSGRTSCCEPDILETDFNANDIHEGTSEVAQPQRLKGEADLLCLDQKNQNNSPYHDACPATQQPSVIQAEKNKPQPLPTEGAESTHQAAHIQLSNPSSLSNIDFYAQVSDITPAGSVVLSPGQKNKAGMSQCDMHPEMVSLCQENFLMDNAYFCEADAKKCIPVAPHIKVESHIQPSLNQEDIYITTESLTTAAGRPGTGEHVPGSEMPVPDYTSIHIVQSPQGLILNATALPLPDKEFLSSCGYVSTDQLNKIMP
# Method: This clone can be used to evaluate the effect of different growth hormone samples on the survival of the BAF-3 GHR.
# The BAF-3 GHR cells are grown in starvation medium (culture medium without growth hormone) for 24 hrs at 37° C., 5% CO2.
# The cells are washed and re-suspended in starvation medium and seeded in plates. 10 μL of growth hormone compound or human growth hormone in different concentrations or control is added to the cells, and the plates are incubated for 68 hrs at 37° C., 5% CO2.
# AlamarBlue® is added to each well and the cells are then incubated for another 4 hrs. The AlamarBlue® is a redox indicator, and is reduced by reactions innate to cellular metabolism and, therefore, provides an indirect measure of viable cell number.
# Finally, the metabolic activity of the cells is measure in a fluorescence plate reader. The absorbance in the samples is expressed in % of cells not stimulated with growth hormone compound or control and from the concentration-response curves the activity (amount of a compound that stimulates the cells with 50%) can be calculated.
# [5] = test system: plasma IGF-1; assay: In vivo dose-response study in hypophysectomised Sprague Dawley rats (plasma IGF-1); settings: Table 5
# Method: The in vivo dose-response relationship is studied in hypophysectomised male Sprague Dawley rats. The hypophysectomised rat is a well known and recognised animal model of growth hormone deficiency, where no production of growth hormone occurs after the surgical removal of the pituitary gland. This also leads to low circulating levels of insulin-like growth factor-1 (IGF-1) another important clinical feature of growth hormone deficiency in humans.
# The hypophysectomy is performed on 4 week old male rats weighing 90-100 g. The animals entering the study 3-4 weeks after the surgery weighing 100-110 g. Animals with a body weight gain of more than 10% during the 3-4 weeks after surgery are not allowed to enter the study.
# Dose response studies are performed using five dose levels of compound 45.4 from 1-150 nmol/rat.
# [6] = in vivo, iv
# Method: as §4, §5, §6, §7, §8
Substance,Chymotrypsin (% intact GH compound) [1],Elastase (% intact GH compound) [2],T1/2 (i.v. Rat) ([3]; Table 4),T1/2 (i.v. Rat) ([3]; Table 5),In vitro potency [4],Duration of IGF-1 increase [5],T1/2 (i.v. Rat) [6],"MRT ([6]; rat, 60 nmol/kg)","T1/2 ([6]; rat, 60 nmol/kg)"
"hGH: wild-type human growth hormone, 191 amino acid residue protein (SEQ ID NO: 1)",40%,25%,0.23 h,0.23 h,–,–,–,–,–
2-(C20diacid-Trx-γGlu-OEG-OEG-δLys)-carbonylmethylene-S^101-hGH[L101C] [Compound 44.1],–,–,–,–,4.7,>48 h,5.6 h,7.2 h,5.6 h
